The text below walks through data of patent US20240325445A1 (Regeneron, published 2024).

Assay [1] has as its target human B-cell maturation antigen (BCMA) on cells (human) (UniProt Q02223). Briefly: cell-based or functional assay.
The target of assay [2] is T1, human B-cell maturation antigen (BCMA) on cells (human, UniProt Q02223 1-184).
T1 sequence: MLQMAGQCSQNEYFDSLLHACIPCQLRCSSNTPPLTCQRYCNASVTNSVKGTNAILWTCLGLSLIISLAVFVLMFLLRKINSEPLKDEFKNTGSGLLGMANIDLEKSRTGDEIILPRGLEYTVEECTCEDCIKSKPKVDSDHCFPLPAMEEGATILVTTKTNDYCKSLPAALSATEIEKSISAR
The assay is described as follows: cell-based or functional assay.

The target in assay [3] is T1, human B-cell maturation antigen (BCMA) …. The assay is described as follows: cell-based or functional assay. The source holds these as a separate data set.
Assay [4] has as its target irrelevant protein fused to hIgG1-Fc (human). Briefly: flow cytometry; 10 ug/ml Fc isotype control on Jurkat/NFATLuc cells carrying the CAR, Alexa 647 secondary antibody. In general terms: Flow cytometry measures light scatter and fluorescence of single cells or particles in a stream.
Assay [5] addresses T2, BCMA extracellular domain fused to an hIgG1-Fc (human, UniProt Q02223 1-54).
T2 construct: also called BCMA ecto-hFc; BCMA-hFc; not shown: human IgG1 Fc
T2 sequence: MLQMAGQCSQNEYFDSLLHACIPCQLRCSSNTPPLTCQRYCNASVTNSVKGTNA
The assay is described as follows: flow cytometry; 10 ug/ml BCMA ecto-hFc on Jurkat/NFATLuc cells carrying the CAR, Alexa 647 secondary antibody. As for the experimental part: Relative cell surface expression of the BCMA CAR constructs in Jurkat/NFATLuc cells was accessed by flow cytometry. […] Cells were then washed and fixed using a 50% solution of BD Cytofix (BD, Cat #554655) diluted in staining buffer. Samples were run on the Intellicyt iQue flow cytometer and analyzed by FlowJo 10.2 to calculate the mean fluorescent intensity (MFI). The signal to noise ratio (S:N) is determined by taking the ratio of the BCMA-hFc or Fc isotype control MFI to the secondary antibody alone MFI.

Consider “control chimeric antigen receptor with an irrelevant scFv (17363)”, for which, in assay [1], the percent cytotoxicity (calcein release), H929 target cells, T effector:target ratio 50, mean is -0.8% and the percent cytotoxicity (calcein release), MOLP8 target cells, T effector:target ratio 50, mean is -3.1%.

B1: BCMA 16747 VL-VH chimeric antigen receptor (scFv of mAb16747) (scFv)
chain: DIQMTQSPSSVSASVGDRVTITCRASQGINNWLVWYQQKPGKAPKLLIYAATSLQSGVPSRFSGSGSGTDFTLTISSLQPEDFATYYCQQANSFPPTFGQGTKLEIKGGGGSGGGGSGGGGSQVQLVESGGGLVKPGGSLRLSCAASGFTFSDYYISWIRQAPGKGLEWVSYISSSGSSIKYADSVKGRFTISRDNAKNSLYLQMNSLRAEDTAVYYCAREGGNYGMDVWGQGTTVTVSSTTTPAPRPPTPAPTIASQPLSLRPEACRPAAGGAVHTRGLDFACDIYIWAPLAGTCGVLLLSLVITLYCKRGRKKLLYIFKQPFMRPVQTTQEEDGCSCRFPEEEEGGCELRVKFSRSADAPAYKQGQNQLYNELNLGRREEYDVLDKRRGRDPEMGGKPRRKNPQEGLYNELQKDKMAEAYSEIGMKGERRRGKGHDGLYQGLSTATKDTYDALHMQALPPR
notes: a linker before the hinge or a signal peptide may be present
As for B1, in assay [2], the “CAR-T Max Activity (NFAT-luciferase, S:N), APC Daudi” value (from here on “CAR-T Max Activity … APC Daudi”) was 14 S:N (highest RLU / lowest RLU); the “CAR-T Max Activity (NFAT-luciferase, S:N), APC RAJI” value (shortened to “CAR-T Max Activity … APC RAJI”) is 38.9 S:N (highest RLU / lowest RLU); the “CAR-T Max Activity (NFAT-luciferase, S:N), APC RPMI8226” value (shortened to “CAR-T Max Activity … APC RPMI8226”) was 12.5 S:N (highest RLU / lowest RLU). Also, in assay [3], the “percent cytotoxicity (calcein release), H929 target cells, T effector:target ratio 0.78, mean” value was 0.9%; the “percent cytotoxicity (calcein release), H929 target cells, T effector:target ratio 1.56, mean” value was 1.8%; the “percent cytotoxicity (calcein release), H929 target cells, T effector:target ratio 3.13, mean” value was 2.9%; the “percent cytotoxicity (calcein release), H929 target cells, T effector:target ratio 6.25, mean” value is 4.2%. In addition, in assay [3], the “percent cytotoxicity (calcein release), H929 target cells, T effector:target ratio 12.5, mean” value was 9.3%; the “percent cytotoxicity (calcein release), H929 target cells, T effector:target ratio 25, mean” value was 19.4%; the “percent cytotoxicity (calcein release), H929 target cells, T effector:target ratio 50, mean” value is 29.3%; the “percent cytotoxicity (calcein release), MOLP8 target cells, T effector:target ratio 0.78, mean” value was -2.9%. Further, in assay [3], the “percent cytotoxicity (calcein release), MOLP8 target cells, T effector:target ratio 1.56, mean” value is 0.2%; the “percent cytotoxicity (calcein release), MOLP8 target cells, T effector:target ratio 3.13, mean” value was 2.2%; the “percent cytotoxicity (calcein release), MOLP8 target cells, T effector:target ratio 6.25, mean” value was 5.8%; the “percent cytotoxicity (calcein release), MOLP8 target cells, T effector:target ratio 12.5, mean” value was 8.2%. Further, in assay [3], the “percent cytotoxicity (calcein release), MOLP8 target cells, T effector:target ratio 25, mean” value was 10.9% and the “percent cytotoxicity (calcein release), MOLP8 target cells, T effector:target ratio 50, mean” value is 14%. Besides, in assay [4], the S:N (Isotype-hFc) (ratio of MFI to secondary antibody alone) came out at 1.3. For the same molecule, the “S:N (BCMA-hFc)” value in assay [5] was 209 ratio of MFI to secondary antibody alone.

B2: BCMA 16711 VL-VH chimeric antigen receptor (scFv of mAb16711) (scFv)
chain: DIQMTQSPSSVSASVGDRVTITCRASRGISSWLAWYQQKPGKAPKLLIHAASSLQSGVPSRFSGSGSGTDFTLTISSLQPEDFATYYCQQAISFPFTFGPGTKVDIKGGGGSGGGGSGGGGSQVQLVESGGGVVQPGRSLRLSCAASGFTFSTYGIHWVRQAPGKGLEWVAVILHDGSSNYYAESVKGRFIISRDNSKNTLYLQMNSLRAEDTALYYCTKRYSEAAGPNWFDPWGQGTLVTVSSTTTPAPRPPTPAPTIASQPLSLRPEACRPAAGGAVHTRGLDFACDIYIWAPLAGTCGVLLLSLVITLYCKRGRKKLLYIFKQPFMRPVQTTQEEDGCSCRFPEEEEGGCELRVKFSRSADAPAYKQGQNQLYNELNLGRREEYDVLDKRRGRDPEMGGKPRRKNPQEGLYNELQKDKMAEAYSEIGMKGERRRGKGHDGLYQGLSTATKDTYDALHMQALPPR
notes: 3C7 cells; a linker before the hinge or a signal peptide may be present; also called 16711 VL-VH CART; 16711 CAR
As for B2, in assay [2], the “CAR-T Max Activity … APC Daudi” value is 2.6 S:N (highest RLU / lowest RLU); the “CAR-T Max Activity … APC RAJI” value is 7.9 S:N (highest RLU / lowest RLU); the “CAR-T Max Activity … APC RPMI8226” value is 1.8 S:N (highest RLU / lowest RLU). Further, in assay [4], the S:N (Isotype-hFc) (ratio of MFI to secondary antibody alone) came to 1.2. Also, in assay [5], the “S:N (BCMA-hFc)” value is 3.7 ratio of MFI to secondary antibody alone.

B3: BCMA 16732 VL-VH chimeric antigen receptor (scFv of mAb16732) (scFv)
chain: DIQMTQSPSSLSASVGDRVTITCRTSQSIGNYLNWFQQKPGKAPKLLIYTASSLQNGVPSRFTGSGSGTDFTLTISSLQPEDFVIYYCQQSFSTPYTFGQGTKLEIKGGGGSGGGGSGGGGSEVQLVESGGGLVQPGRSLRLSCAASGFTFDDYAMHWVRQAPGKGLEWVSGISWNSGNMGYADSVKGRFTISRDNAKNSLFLQMHSLRAEDTAFYYCAKVRLTAFDFWGQGTLVTVSSTTTPAPRPPTPAPTIASQPLSLRPEACRPAAGGAVHTRGLDFACDIYIWAPLAGTCGVLLLSLVITLYCKRGRKKLLYIFKQPFMRPVQTTQEEDGCSCRFPEEEEGGCELRVKFSRSADAPAYKQGQNQLYNELNLGRREEYDVLDKRRGRDPEMGGKPRRKNPQEGLYNELQKDKMAEAYSEIGMKGERRRGKGHDGLYQGLSTATKDTYDALHMQALPPR
notes: 3C7 cells; a linker before the hinge or a signal peptide may be present; also called 16732 VL-VH CART; 16732 CAR
Consider B3, for which, in assay [2], the “CAR-T Max Activity … APC Daudi” value was 4.9 S:N (highest RLU / lowest RLU); the “CAR-T Max Activity … APC RAJI” value was 16.8 S:N (highest RLU / lowest RLU); the “CAR-T Max Activity … APC RPMI8226” value was 5.2 S:N (highest RLU / lowest RLU). For the same molecule, the S:N (Isotype-hFc) (ratio of MFI to secondary antibody alone) in assay [4] is 1. For the same molecule, the “S:N (BCMA-hFc)” value in assay [5] is 13.1 ratio of MFI to secondary antibody alone.
